Test results reported in US6365154 (GlaxoSmithKline, dated 2002).

B1: murine monoclonal antibody 15B8 (antibody, V domains shown)
VH: QVQLQQPGVVLVMPGASVKLSCKASGYTFASYWMHWVKQRPGQGLEWIGEIDPSDSYRNYNQKFKGKATLTVDKSSSTVNMQLSSLTSEDSAVYYCAKTSGIGRAMDYWGQGTSVTVSS
VL: DIQMIQSPASLSASVGETVTITCRASENIYSFVTWYQQKQGKSPQLLVFNAKNLVEGVPSSFSGSGSGTQFSLKIDSLQPEDFGTYYCQHHYSIPYTFGGGTKLEMR
notes: Constant regions are mouse IgG heavy and kappa light, going by the PCR primers; also called mAb 15B8; mAb 1 B 8
B2: murine monoclonal antibody 13H10 (antibody, V domains shown)
VH: QIQLVQSGPELKKPGETVKISCKASGYTFTDFSIHWVKQAPGKGLKWMGWINTETGETTYAEDFKGRFAFSLETSASTAYLQINNLKNEDTATYFCSRRYDYDTWFAYWGQGTLVTVS
VL: DIVMTQAALSVPVTPGESVSISCRSSSSLLHRNGNTYLYWFLQRPGQSPQLLIYRMSNLASGVPDRFSGSGSGTAFTLRISRVEAEDVGVYYCMQRLEYPFTFGGGTKLEIKR
notes: Constant regions are mouse IgG heavy and kappa light, going by the PCR primers; also called mAb 13H10; mAb 13H 10

Tests used:
[1] = target: T1, recombinant Tie2 extracellular domain-Fc fusion (UniProt Q02763 23-748); assay: BIAcore SPR; mAb captured on rabbit anti-mouse IgG Fc, Tie2-Fc injected
T1 construct: extracellular domain; also called Tie2-Fc; Tie2 receptor-Fc fusion; not shown: It is probably human IgG Fc: human IgG1 was added to remove anti-Fc mAbs, and the fusion was ca
T1 sequence (Q02763 23-748): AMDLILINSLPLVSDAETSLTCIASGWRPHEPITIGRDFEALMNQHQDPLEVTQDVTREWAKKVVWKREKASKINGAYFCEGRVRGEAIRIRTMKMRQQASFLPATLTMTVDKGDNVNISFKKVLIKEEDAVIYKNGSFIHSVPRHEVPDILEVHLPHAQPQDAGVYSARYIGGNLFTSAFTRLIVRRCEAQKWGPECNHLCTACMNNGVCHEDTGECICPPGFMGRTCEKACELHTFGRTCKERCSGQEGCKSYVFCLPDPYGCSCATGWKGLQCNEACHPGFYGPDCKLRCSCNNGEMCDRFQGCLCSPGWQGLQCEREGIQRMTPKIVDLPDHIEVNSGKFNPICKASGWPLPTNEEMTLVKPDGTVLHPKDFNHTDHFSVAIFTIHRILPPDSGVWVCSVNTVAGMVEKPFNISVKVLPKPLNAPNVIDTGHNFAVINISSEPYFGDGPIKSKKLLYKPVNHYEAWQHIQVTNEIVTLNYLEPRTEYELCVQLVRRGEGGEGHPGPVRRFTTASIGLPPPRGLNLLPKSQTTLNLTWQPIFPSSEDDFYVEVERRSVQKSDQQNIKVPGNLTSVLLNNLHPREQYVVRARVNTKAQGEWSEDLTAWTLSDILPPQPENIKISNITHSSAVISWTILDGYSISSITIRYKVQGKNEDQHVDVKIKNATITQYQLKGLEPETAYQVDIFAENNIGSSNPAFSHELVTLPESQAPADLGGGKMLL
Description: The affinity of the purified mAbs was measured in the BIAcore. Using a flow rate of 10 ul/min, the mAb (diluted in HBS buffer) was injected over a rabbit anti-mouse IgG Fc surface, followed by buffer flow and the RU recorded. Tie2-Fc diluted in HBS buffer was then injected for 120s followed by buffer flow for 240s and regeneration of the sensor chip surface with an injection of 15 ul 0.1 M phosphoric acid. BIAcore software was used for association and dissociation-phase analysis. The murine monoclonal antibodies bound to soluble monomeric Tie2 receptor. The on-rates ($kass$) and off-rates ($kdiss$) were calculated.

[2] = target: Tie2 receptor on HEL cells or HUVECs (human, UniProt Q02763 23-1124); assay: cell-based or functional assay
Chain of Tie2 receptor on HEL cells or HUVECs (Q02763 23-1124): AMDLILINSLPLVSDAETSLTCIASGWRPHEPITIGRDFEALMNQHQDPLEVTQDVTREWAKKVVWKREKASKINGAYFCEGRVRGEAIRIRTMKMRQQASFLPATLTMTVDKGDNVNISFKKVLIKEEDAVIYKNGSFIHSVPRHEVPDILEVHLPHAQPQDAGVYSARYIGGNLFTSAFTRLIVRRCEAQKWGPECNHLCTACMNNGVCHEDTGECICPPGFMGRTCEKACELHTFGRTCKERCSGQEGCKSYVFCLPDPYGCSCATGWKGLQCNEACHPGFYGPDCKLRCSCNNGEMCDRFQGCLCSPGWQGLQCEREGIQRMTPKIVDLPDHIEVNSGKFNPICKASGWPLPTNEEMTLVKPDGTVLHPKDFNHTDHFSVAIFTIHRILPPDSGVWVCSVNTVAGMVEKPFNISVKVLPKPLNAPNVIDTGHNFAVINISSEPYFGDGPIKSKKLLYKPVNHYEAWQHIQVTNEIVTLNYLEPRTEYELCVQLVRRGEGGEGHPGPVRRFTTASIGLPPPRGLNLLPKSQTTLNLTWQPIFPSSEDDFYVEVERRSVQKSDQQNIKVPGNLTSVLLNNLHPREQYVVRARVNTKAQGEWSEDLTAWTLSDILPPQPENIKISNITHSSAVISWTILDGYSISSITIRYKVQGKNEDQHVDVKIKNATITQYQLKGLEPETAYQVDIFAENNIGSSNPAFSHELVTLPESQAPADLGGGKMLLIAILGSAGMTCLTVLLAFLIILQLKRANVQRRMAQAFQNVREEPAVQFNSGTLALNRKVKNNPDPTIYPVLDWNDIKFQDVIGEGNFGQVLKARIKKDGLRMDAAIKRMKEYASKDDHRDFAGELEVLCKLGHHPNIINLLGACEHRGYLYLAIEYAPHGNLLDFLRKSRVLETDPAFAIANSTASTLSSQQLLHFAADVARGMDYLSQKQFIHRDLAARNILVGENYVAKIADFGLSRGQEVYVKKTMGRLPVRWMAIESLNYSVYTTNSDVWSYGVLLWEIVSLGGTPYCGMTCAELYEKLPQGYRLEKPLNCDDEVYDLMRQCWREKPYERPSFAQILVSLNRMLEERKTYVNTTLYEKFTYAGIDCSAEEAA

Binder	Kd [1]	Tie2 receptor tyrosine phosphorylation (immunoprecipitation and anti-phosphotyrosine Western blot, ratio to Tie-2 staining) [2]
B1	0.24 nM	> 2 fold over basal
B2	3.1 nM	–
